Tests used:
[1] = target: HA tri-stalk protein (HA amino acids 403-474 of the pandemic strain A/Luxembourg/43/2009(H1N1)) (Influenza A virus A/Luxembourg/43/2009(H1N1)); test: SEC
[2] = target: HA tri-stalk protein (HA amino acids 403-474 of the pandemic strain A/Luxembourg/43/2009(H1N1)) (Influenza A virus A/Luxembourg/43/2009(H1N1)); test: crystal structure

Question: What does the source list for “HA tri-stalk protein (HA amino acids 403-474 of the pandemic strain A/Luxembourg/43/2009(H1N1)) (domain or fragment)”?
Answer: stoichiometry N [1]: 3; stoichiometry N [2]: 3

Reference: article PMC6160157
